Blank lines part the entries; values can stand above or below the binder they belong to.
Key:
[1] = target: T1, full length human PAR-2 (human, UniProt P55085 26-397); assay: cell-based or functional assay
[2] = target: T2, C-terminal biotinylated human PAR-2 peptide SEQ ID NO:879 (Val-42 to Ala) (human, not fully specified; C-terminal biotin (K-B)); assay: BLI Exp2
T2 construct: alanine-scan mutant
T2 peptide: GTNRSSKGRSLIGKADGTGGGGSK
Procedure: (§1) In order to more particularly identify the amino acids of PAR-2 with which the PAR-2 antibodies interact, an alanine scanning study was carried out using peptides comprising the activating PAR-2 protease cleavage site.
(§2) The ability of each peptide mutant to bind to PAR-2 antibodies was measured using biolayer interferometry (Octet Red; ForteBio). Each peptide (2.5 μg/ml) was captured on streptavidin coated biosensor tips (Octet SA sensor) for 10 seconds. To measure binding and dissociation between each peptide and PAR-2 antibody, the peptide-coated biosensors were contacted with 200 nM solutions of PAR-2 antibodies for 5 minutes (binding) followed by transfer to buffer with no antibody for 10 min (dissociation). […] The results are expressed as percent binding and percent T_{1/2} relative to WT peptide (Tables 24-28).

[3] = target: T3, C-terminal biotinylated human PAR-2 14-mer peptide SEQ ID NO:887 (Val-42 and Asp-43 to Ala) (human, not fully specified; C-terminal biotin (K-B)); assay: BLI Exp2
T3 peptide: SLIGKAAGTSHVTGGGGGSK
Procedure: as §1, §2

[4] = target: T4, C-terminal biotinylated human PAR-2 peptide SEQ ID NO:872 (Gly-35 to Ala) (human, not fully specified; C-terminal biotin (K-B)); assay: BLI Exp2
T4 construct: alanine-scan mutant
T4 peptide: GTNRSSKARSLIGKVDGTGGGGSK
Procedure: as §1, §2

[5] = target: T5, C-terminal biotinylated human PAR-2 14-mer peptide SEQ ID NO:884 (SLIGKVDGTSHVTG, wild-type) (human, not fully specified; C-terminal biotin (K-B)); assay: BLI Exp2
T5 peptide: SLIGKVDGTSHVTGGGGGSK
Procedure: as §1, §2

[6] = target: monkey PAR-2 (monkey); assay: cell-based or functional assay
[7] = target: T1, full length human PAR-2; assay: cell-based or functional assay; remark: listed apart in the source
[8] = target: rat PAR-2 (rat, UniProt Q63645 37-397); assay: cell-based or functional assay
rat PAR-2, sequence (Q63645 37-397): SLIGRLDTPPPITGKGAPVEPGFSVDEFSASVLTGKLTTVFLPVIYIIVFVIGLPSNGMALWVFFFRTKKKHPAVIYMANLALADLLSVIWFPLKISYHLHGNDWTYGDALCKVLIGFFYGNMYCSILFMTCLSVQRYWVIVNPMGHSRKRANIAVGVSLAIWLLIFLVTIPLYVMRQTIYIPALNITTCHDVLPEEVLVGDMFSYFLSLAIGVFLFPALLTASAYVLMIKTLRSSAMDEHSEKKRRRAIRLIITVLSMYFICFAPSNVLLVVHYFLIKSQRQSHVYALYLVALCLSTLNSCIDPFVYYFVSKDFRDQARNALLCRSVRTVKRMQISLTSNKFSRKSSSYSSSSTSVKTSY

[9] = target: T6, Peptide J (pig PAR-2) (Pig (Sus scrofa)); assay: SPR, antibody captured
T6 peptide: GTSRPSKGRSLIGKADNT
Procedure: (§3) Equilibrium dissociation constants (KD values) for antigen binding to selected purified PAR-2 antibodies were determined by surface kinetics using a real-time surface plasmon resonance biosensor assay. Antibody was captured on either a rabbit anti-mouse IgG polyclonal antibody (GE Healthcare, Piscataway, N.J.) surface or a goat anti-human IgG polyclonal antibody (Jackson Immuno Research Lab, West Grove, Pa.) surface created through direct amine chemical coupling to a BIACORE™ CM5 sensor chip to form a captured antibody surface. […] Antigen-antibody binding and dissociation were monitored in real time at room temperature. Kinetic analysis was performed to calculate KD and half-life of antigen/antibody complex dissociation (Table 10). For those antibodies where no T_{1/2} value is shown, steady state analysis was used to calculate the KD value. NB: no binding observed under current experimental conditions. ND: not determined.

[10] = target: T7, full length mouse PAR-2 (mouse, UniProt P55086 26-399); assay: MSD cell binding
T7 construct: also called 293/D9/mPAR-2rec cells
T7 chain: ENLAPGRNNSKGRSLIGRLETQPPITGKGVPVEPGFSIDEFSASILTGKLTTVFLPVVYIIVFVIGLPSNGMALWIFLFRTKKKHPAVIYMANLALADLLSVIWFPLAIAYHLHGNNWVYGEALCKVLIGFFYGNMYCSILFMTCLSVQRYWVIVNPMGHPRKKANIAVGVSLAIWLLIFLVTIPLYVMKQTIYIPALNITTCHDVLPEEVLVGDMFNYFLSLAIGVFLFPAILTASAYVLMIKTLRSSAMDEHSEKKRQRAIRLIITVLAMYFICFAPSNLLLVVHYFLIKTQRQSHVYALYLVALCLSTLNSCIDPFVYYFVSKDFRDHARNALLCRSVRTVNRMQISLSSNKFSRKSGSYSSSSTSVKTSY
Summary of the method: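 Antibodies, two-fold dilutions from 100 nM to 0.098 nM, bound for 1 h at room temperature to HEK293/D9 cells stably expressing human or mouse PAR-2, detected by sulfo-tagged anti-human IgG electrochemiluminescence. Parental 293/D9 signal was subtracted; EC50 and Bmax came from sigmoidal dose-response fits.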

[11] = target: T8, Peptide B (human PAR-2), unbiotinylated (Human); assay: SPR, antibody captured
T8 construct: also called Peptide B No Biotin
T8 peptide: SLIGKVDGTSHVTG

[12] = target: T9, Peptide F (monkey PAR-2), N-terminal biotinylated (Monkey (Macaca mulatta), N-terminal biotin via G4S linker); assay: SPR, antibody captured
T9 construct: also called Peptide F N-Term
T9 sequence (peptide, as listed by the source): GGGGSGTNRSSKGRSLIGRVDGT

[13] = target: T8, Peptide B (human PAR-2), unbiotinylated; assay: SPR, antibody captured
Procedure: as §3

T1 sequence (P55085 26-397 G138A limits assumed): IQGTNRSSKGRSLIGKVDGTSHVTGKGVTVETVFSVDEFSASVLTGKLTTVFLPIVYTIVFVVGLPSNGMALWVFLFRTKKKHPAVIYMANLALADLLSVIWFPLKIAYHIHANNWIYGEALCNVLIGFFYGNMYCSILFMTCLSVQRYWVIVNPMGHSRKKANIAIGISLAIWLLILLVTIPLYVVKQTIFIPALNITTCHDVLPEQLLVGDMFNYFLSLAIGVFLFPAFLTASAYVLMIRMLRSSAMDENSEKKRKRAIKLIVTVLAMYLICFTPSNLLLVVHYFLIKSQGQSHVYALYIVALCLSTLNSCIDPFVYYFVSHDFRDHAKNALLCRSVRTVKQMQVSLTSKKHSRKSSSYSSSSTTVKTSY

- IC50, calcium mobilization FLIPR, 100 nM Trypsin [1]: 55 nM
- % Rel Binding [2]: 46%
- % Rel T1/2 [2]: 1%
- binding result [3]: no binding (tested: 200 nM antibody)
- % Rel Binding [4]: 97%
- % Rel T1/2 [4]: 117%
- % Rel Binding [5]: 100%
- % Rel T1/2 [5]: 100%
- H4H581P IC50, NF-kB-luciferase, Bovine Factor Xa [6]: 0.9 nM
- H4H581P IC50, NF-kB-luciferase, Human Kallikrein 5 [6]: 11 nM
- H4H581P IC50, NF-kB-luciferase, Human Kallikrein 14 [6]: 11.6 nM
- H4H581P IC50, NF-kB-luciferase, Human Pancreatic Trypsin [6]: 5.4 nM
- H4H581P IC50, NF-kB-luciferase, Bovine Factor Xa [7]: 2.5 nM
- H4H581P IC50, NF-kB-luciferase, Human Factor Xa [7]: 1.1 nM
- H4H581P IC50, NF-kB-luciferase, Human Kallikrein 5 [7]: 0.9 nM
- H4H581P IC50, NF-kB-luciferase, Human Kallikrein 14 [7]: 1.2 nM
- H4H581P IC50, NF-kB-luciferase, Human Pancreatic Trypsin [7]: 1.9 nM
- H4H581P IC50, NF-kB-luciferase, Tryptase [7]: 3.5 nM
- H4H581P IC50, NF-kB-luciferase, Human Pancreatic Trypsin [8]: 700 nM
B1: H4H581P (antibody, human IgG4, V domains shown)
VH: QVQLVESGGGVVQPGRSLRLSCVASGFTFSRYGIHWVRQAPGKGLEWVIVISYDGINKYYADSVKGRFTISRDNSKNTVYLQMNSLRAEDTAVYYCAKGDFWSGYFDYWGQGTLVTVSS
VL: DIVMTQTPLSSPVTLGQPASISCRSSQSLVHSDGNTYLSWLHQRPGQPPRLLIYKISNRFSGVPDRFSGSGAGTDFTLQISRVEAEDVGIYYCMQATQFPTFGGGTKVEIK
notes: also called mAb H4H581P; H1H581P variable regions

- Kd [9]: 190 nM
- T1/2 [9]: 0.16 min
- Bmax [10]: 7220 MSD Unit
- EC50 [10]: 9.28 nM
B2: H4H583P (antibody, human IgG4, V domains shown)
VH: QVQLVESGGGVVQPGMSLRLSCTASGFTFRRYGMHWVRQAPGKGLEWVAVIWYDGSNKYYADSVKGRFTITRDNSKNTLYLQMNSLRAEDTAIYFCASEITIGDWFDPRGQGTLVTVSS
VL: AIQMTQSPSSLSASVGDRVTITCRASQGIRNDLGWFQQKPGKVPKLLIYAASTLHSGVPSRFSGSGFGTDFTLTISSLQPEDFATYYCLQDFNYPLTFGGGTKVEIK
notes: also called H1H583P variable regions
- binding result [11]: no binding (tested: 15.6 to 250 nM peptide)

- binding result [9]: no binding
- IC50, calcium mobilization FLIPR, 100 nM Trypsin [1]: 29.5 nM
- Kd [12]: 7.1 nM
- T1/2 [12]: 24 min
- % Rel Binding [2]: 52%
- % Rel T1/2 [2]: 0%
- binding result [3]: no binding (tested: 200 nM antibody)
- % Rel Binding [4]: 99%
- % Rel T1/2 [4]: 253%
- % Rel Binding [5]: 100%
- % Rel T1/2 [5]: 100%
- Kd [13]: 84 nM
- T1/2 [13]: 9 min
B3: H4H588N (antibody, human IgG4, V domains shown)
VH: EVQLLESGGGLVQPGGSLRLSCAASGFTFSSYAMTWVRQAPGKGLYWVSAISGGRGSAYYADSVKGRFTISRDNSKNTLYLQMNSLRAEDTAVYYCAKEGDSGYDLAYWGRGTLVTVSS
VL: DIQMTQSPSSLSASVGDRVTITCRARQGISNNLAWLQQKPGKAPKSLIYAASSLQSGIPSKFSGSGSGTYFTLTISSLQPEDFATYYCQQYKSSPLTFGGGTKVEIK
notes: also called H2M588N variable regions
- binding result [10]: no binding (tested: 100 nM to 0.098 nM antibody)
